Assay results from patent US20200277392A1 (Hoffmann-La Roche, published 2020).

B1: 49B4/TnC 11C7 P329GLALA 2 + 2 (ID7215) (bispecific antibody, human IgG1, kappa, L234A L235A)
heavy: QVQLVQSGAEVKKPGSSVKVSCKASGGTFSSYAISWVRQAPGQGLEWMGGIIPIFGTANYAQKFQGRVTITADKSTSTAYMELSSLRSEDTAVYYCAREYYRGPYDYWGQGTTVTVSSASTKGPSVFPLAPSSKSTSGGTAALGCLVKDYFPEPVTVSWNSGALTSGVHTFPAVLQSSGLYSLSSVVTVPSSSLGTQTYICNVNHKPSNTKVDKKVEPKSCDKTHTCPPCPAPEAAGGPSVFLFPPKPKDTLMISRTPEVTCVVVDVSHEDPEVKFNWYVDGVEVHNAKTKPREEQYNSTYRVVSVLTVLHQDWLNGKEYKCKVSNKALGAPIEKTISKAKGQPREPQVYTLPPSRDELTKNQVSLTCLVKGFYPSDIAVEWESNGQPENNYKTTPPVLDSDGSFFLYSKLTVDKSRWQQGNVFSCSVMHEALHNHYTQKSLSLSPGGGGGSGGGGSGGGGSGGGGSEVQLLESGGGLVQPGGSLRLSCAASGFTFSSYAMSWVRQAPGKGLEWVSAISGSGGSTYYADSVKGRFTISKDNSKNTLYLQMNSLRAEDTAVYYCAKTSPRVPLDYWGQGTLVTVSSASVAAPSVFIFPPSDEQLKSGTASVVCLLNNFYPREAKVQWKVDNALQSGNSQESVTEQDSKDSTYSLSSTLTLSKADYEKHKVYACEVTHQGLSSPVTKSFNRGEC
light 1: DIQMTQSPSTLSASVGDRVTITCRASQSISSWLAWYQQKPGKAPKLLIYDASSLESGVPSRFSGSGSGTEFTLTISSLQPDDFATYYCQQYSSQPYTFGQGTKVEIKRTVAAPSVFIFPPSDEQLKSGTASVVCLLNNFYPREAKVQWKVDNALQSGNSQESVTEQDSKDSTYSLSSTLTLSKADYEKHKVYACEVTHQGLSSPVTKSFNRGEC
light 2: SSELTQDPAVSVALGQTVRVTCQGDSLRSYYASWYQQKPGQAPVLVIYGKNNRPSGIPDRFSGSSSGNTASLTITGAQAEDEADYYCNSINSTRNEVFGGGTKLTVLSSASTKGPSVFPLAPSSKSTSGGTAALGCLVKDYFPEPVTVSWNSGALTSGVHTFPAVLQSSGLYSLSSVVTVPSSSLGTQTYICNVNHKPSNTKVDKKVEPKSCD
notes: huIgG1 P329G LALA; 49B4 VHCH1-Fc-(G4S)4-11C7 VHCL heavy chain, 49B4 VLCL light chain, 11C7 VLCH1 crossed light chain; also called 2 + 2 (49B4/11C7); 49B4/11C7 2 + 2
B2: parental bivalent anti-TnC antibody clone18D4 (antibody, V domains shown)
VH: QVQLVQSGAEVKKPGSSVKVSCKASGGTFSSYAISWVRQAPGQGLEWMGGIIPIFGTANYAQKFQGRVTITADKSTSTAYMELSSLRSEDTAVYYCAKGNFYGGLDYWGQGTTVTVSS
VL: DIQMTQSPSTLSASVGDRVTITCRASQSISSWLAWYQQKPGKAPKLLIYDASSLESGVPSRFSGSGSGTEFTLTISSLQPDDFATYYCQQNKKFPSGTFGQGTKVEIK
notes: Human IgG1; also called αTnC (18D4); anti-TnC 18D4 IgG

Legend:
human OX40 on cells [1] = target: T1, human OX40 on cells (human, UniProt P43489 29-277); test: flow cytometry on OX40+ cells (activated human PBMC)
T1 construct: also called CD134; OX40+ Cells
T1 sequence: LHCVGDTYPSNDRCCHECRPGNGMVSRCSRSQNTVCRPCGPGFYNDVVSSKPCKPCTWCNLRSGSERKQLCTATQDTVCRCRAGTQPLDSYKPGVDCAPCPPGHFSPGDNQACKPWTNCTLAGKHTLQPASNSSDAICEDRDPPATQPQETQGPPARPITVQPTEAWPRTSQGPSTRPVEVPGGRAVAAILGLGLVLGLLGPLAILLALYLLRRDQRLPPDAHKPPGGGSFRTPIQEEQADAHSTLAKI
Method: (§1) For labeling, cells were harvested, washed with pre-warmed (37° C.) DPBS and adjusted to a cell density of 1×10⁷ cells/mL in DPBS. eFluor670 cell proliferation dye (eBioscience, Cat.-No. 65-0840-85) was added to the suspension of naïve human PBMC at a final concentration of […] and a final cell density of 0.5×10⁷ cells/mL in DPBS. Cells were then incubated for 10 min at room temperature in the dark. To stop the labeling reaction, 4 mL heat inactivated FBS was added and cells were washed three times with T cell medium. A 2:1 mixture of 1×10⁵ resting eFluor670 labeled human PBMC and 0.5×10⁵ unlabeled activated human PBMC were then added to each well of round-bottomed suspension cell 96-well plates (Greiner bio-one, cellstar, Cat. No. 650185).
(§2) Cells were stained for 120 minutes at 4° C. in the dark in 50 μL/well 4° C. FACS buffer containing different amounts of the indicated antigen binding molecules. After three washes with 4° C. FACS buffer, cells were stained for 45 minutes at 4° C. in the dark in 25 μL/well 4° C. FACS buffer containing a mixture of fluorescently labeled anti-human CD4 (clone RPA-T4, mouse IgG1 k, BioLegend, Cat.-No. 300532), anti-human CD8 (clone RPa-T8, mouse IgGlk, BioLegend, Cat.-No. 3010441) and Fluorescein isothiocyanate (FITC)-conjugated AffiniPure anti-human IgG Fcγ-fragment-specific goat IgG F(ab′)₂ fragment (Jackson ImmunoResearch, Cat.-No. 109-096-098).
Cells were then resuspended in […] FACS-buffer containing 0.2 μg/mL DAPI (Santa Cruz Biotec, Cat. No. Sc-3598) and acquired the same day using 5-laser LSR-Fortessa (BD Bioscience with DIVA software).

[2] = target: T2, human TnC with C-terminal Avi- and His-tags (human, UniProt P24821 984-1798, biotinylated at the C-terminal Avi-tag); test: SPR Biacore T200, biotinylated TnC on SA chip, bispecific as analyte, 1:1 fit, apparent KD (bivalent binding)
T2 construct: also called huTnC; biotinylated human TnC
T2 sequence: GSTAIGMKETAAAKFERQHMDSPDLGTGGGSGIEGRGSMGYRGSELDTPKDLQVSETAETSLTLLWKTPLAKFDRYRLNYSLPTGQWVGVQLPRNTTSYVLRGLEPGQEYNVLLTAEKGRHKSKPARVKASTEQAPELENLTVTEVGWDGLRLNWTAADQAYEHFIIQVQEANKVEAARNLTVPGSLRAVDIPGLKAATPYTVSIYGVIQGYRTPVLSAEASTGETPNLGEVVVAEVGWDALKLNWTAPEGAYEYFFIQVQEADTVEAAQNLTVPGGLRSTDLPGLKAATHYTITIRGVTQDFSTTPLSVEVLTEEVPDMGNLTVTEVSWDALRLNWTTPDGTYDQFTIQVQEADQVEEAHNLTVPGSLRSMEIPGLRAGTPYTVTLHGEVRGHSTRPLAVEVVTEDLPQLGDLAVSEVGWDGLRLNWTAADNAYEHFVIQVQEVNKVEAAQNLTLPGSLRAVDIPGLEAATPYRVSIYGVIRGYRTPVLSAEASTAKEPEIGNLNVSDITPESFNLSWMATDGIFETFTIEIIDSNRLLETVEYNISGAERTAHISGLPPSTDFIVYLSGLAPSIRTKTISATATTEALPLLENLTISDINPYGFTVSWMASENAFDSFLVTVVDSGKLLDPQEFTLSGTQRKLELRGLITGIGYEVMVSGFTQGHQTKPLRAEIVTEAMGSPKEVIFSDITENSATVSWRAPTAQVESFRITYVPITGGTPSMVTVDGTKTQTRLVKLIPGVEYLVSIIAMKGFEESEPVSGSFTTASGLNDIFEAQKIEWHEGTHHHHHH
Method: The capacity of the bispecific constructs to bind human, murine and cynomolgus TnC was analysed by surface plasmon resonance (SPR). All SPR experiments were performed on a Biacore T200 at 25° C. with HBS-EP as running buffer (0.01 M HEPES pH 7.4, 0.15 M NaCl, 3 mM EDTA, 0.005% Surfactant P20, Biacore, Freiburg/Germany).
Biotinylated human, murine or cynomolgus TnC molecules were immobilised on a SA chip to reach an immobilization level of 10 resonance units (RU).
Following immobilisation, the bispecific molecules or control molecules were immediately passed over the chip surface at concentrations ranging from 0.05-50 nM, at a flow rate of 30 μL/minute for 120 seconds and a dissociation phase of 180 seconds. The surface was regenerated using 10 mM glycine pH2.1. Bulk refractive index differences were corrected for by subtracting the response obtained in a reference flow cell, where no TnC was immobilized. Affinity/Avidity was determined under these experimental conditions using the Langmuir 1:1 curve fitting. For bivalent binding the same 1:1 fitting was used leading to an apparent KD value.

[3] = target: T3, human OX40 Fc(kih), monomeric Fc-linked human OX40 antigen ECD (human, UniProt P0DOX5 223-449 = IgG part); test: SPR (Biacore T200, 25 °C): bispecific held on immobilised human TnC; human OX40 Fc(kih) at 250 nM injected for 90 s as analyte 2
T3 construct: Heterodimer of one OX40 ECD (aa 29-214)-AcTEV-Fc knob-Avi chain and one Fc hole chain; Biotinylated at the Avi tag for phage selection and ELISA; also called recombinant OX40 Fc (kih) receptor; biotinylated human OX40
Method: All SPR experiments were performed on a Biacore T200 at 25° C. with HBS-EP as running buffer (0.01 M HEPES pH 7.4, 0.15 M NaCl, 3 mM EDTA, 0.005% Surfactant P20, Biacore, Freiburg/Germany).
Biotinylated human TnC was directly coupled to a flow cell of a streptavidin (SA) sensor chip. Immobilization levels up to 1000 resonance units (RU) were used.
Bulk refractive index differences were corrected for by subtracting the response obtained in a reference flow cell, where no protein was immobilized.

human TnC on cells [4] = target: T4, human TnC on cells (human, UniProt P24821 23-2201); test: flow cytometry on CT26huTnC cells
T4 construct: Endogenous on U87-MG cells (low or intermediate level) and stably transfected in CT26 cells (CT26huTnC, high level); also called cell surface human TnC; TnC on U87-MG cells

human TnC on cells [5] = target: T4, human TnC on cells; test: flow cytometry on U87-MG cells
Method: Cells were then stained for 60 to 120 minutes at 4° C. in the dark in 50 4/well 4° C.
For discrimination of live and dead cells two methods were used. […] Alternatively, cells were washed once with DPBS and were incubated for 15 minutes at dark/4° C. at a cell concentration of 1×10⁶ cell/mL in DPBS containing Zombie Aqua™ Viability Dye [1:800 dilution]. Cells were subsequently washed once with DPBS to remove excess dye before primary antigen binding molecules were added to the cells and the cells were incubated as described above.

human OX40 on cells [6] = target: T1, human OX40 on cells; test: flow cytometry on activated human PBMC, gated on CD4+ T cells; FITC anti-human IgG secondary; MFI baseline corrected
Method: as §1
as §2, with “109-096-098). […]” for “109-096-098).”

T4 sequence (P24821 23-2201 limits assumed): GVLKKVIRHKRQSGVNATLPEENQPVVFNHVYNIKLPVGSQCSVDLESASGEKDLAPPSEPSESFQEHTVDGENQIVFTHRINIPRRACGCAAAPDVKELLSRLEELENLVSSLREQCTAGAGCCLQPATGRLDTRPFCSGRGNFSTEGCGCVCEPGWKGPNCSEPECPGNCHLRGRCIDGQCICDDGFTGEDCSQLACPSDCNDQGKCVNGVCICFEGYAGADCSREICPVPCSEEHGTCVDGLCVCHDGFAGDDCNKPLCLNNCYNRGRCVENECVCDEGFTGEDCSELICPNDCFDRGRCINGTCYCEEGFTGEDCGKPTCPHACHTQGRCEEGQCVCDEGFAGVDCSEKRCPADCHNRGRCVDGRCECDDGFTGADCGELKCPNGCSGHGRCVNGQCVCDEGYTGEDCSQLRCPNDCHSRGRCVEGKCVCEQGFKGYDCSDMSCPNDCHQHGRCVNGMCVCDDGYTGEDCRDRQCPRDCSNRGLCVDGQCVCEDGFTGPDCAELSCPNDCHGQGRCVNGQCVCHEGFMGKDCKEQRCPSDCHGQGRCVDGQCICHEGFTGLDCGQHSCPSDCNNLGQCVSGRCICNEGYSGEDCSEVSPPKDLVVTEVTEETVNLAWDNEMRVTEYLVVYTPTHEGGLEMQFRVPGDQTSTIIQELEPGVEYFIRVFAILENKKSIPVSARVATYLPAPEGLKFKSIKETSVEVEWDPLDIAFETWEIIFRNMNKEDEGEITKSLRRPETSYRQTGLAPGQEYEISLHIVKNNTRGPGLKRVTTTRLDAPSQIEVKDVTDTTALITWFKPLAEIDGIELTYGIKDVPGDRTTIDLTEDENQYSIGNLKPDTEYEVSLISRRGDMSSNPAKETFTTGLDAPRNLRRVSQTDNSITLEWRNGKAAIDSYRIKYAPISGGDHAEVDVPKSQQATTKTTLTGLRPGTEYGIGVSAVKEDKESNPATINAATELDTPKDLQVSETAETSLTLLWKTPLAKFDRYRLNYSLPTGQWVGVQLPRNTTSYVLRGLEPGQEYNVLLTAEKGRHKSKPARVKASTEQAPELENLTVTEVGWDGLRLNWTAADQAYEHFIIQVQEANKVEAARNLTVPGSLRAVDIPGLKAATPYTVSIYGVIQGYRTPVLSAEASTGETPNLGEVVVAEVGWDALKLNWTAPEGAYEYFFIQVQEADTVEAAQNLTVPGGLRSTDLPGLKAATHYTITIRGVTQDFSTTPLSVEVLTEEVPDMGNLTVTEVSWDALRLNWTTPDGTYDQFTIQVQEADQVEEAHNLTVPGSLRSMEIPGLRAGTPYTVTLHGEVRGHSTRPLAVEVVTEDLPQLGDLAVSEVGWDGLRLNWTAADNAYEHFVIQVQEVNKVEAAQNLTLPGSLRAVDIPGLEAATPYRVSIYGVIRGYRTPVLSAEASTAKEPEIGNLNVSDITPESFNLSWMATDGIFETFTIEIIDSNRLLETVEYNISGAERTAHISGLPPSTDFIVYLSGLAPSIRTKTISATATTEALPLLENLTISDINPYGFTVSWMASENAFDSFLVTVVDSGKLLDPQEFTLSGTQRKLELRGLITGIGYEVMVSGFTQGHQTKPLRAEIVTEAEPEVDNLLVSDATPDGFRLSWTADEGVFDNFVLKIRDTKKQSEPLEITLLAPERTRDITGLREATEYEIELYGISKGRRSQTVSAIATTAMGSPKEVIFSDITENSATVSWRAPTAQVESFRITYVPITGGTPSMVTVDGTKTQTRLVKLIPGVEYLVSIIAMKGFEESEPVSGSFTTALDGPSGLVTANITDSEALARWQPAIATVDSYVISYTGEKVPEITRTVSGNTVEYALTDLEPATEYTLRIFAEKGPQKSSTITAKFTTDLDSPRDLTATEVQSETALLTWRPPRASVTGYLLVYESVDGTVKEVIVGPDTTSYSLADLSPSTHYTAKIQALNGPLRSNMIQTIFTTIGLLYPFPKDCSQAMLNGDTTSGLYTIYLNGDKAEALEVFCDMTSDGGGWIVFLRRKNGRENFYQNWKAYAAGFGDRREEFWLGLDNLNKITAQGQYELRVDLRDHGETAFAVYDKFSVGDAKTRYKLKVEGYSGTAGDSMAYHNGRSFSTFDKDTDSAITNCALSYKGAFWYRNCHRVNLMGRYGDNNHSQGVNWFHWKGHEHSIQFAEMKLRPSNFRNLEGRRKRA

| Binder | EC50 (human OX40 on cells [1]) [nM] | Kd [2] [nM] | binding result [3] | EC50 (human TnC on cells [4]) [nM] | EC50 (human TnC on cells [5]) [nM] | binding result (human OX40 on cells [6]) |
| --- | --- | --- | --- | --- | --- | --- |
| B1 | 4.22 | 5.85 | binds | – | – | – |
| B2 | – | – | – | 2.69 | 8.21 | no binding (tested: 100 nM) |
